Reference: publication PMC4832424

What was measured:
[1] = biological target: wild-type TUBB3 (recombinant α/β-tubulin heterodimer with human β-tubulin isotype III) (Homo sapiens) (UniProt P68363); test: TIRF microscopy single-filament polymerization assay
GST-TOG1/2 = test: pull-down
[2] = biological target: TUBB3-D417H (recombinant α/β-tubulin heterodimer with human TUBB3 D417H) (Homo sapiens) (UniProt P68363); test: TIRF microscopy single-filament polymerization assay

Row | apparent association rate constant k+ of tubulin subunits at plus-ends [1] | apparent dissociation rate constant k- of tubulin subunits at plus-ends [1] | Kd (GST-TOG1/2) | apparent association rate constant k+ of tubulin subunits at minus-ends [2] | apparent dissociation rate constant k- of tubulin subunits at minus-ends [2] | Substance
1 | 1.7e+06 M⁻¹ s⁻¹ | 1.1 s⁻¹ | 400 nM | – | – | wild-type TUBB3 (recombinant α/β-tubulin heterodimer with human β-tubulin isotype III) (from UniProt P68363-1 1-437; Q13509-1 1-426) (complex)
2 | – | – | 1200 nM | 1.4e+06 M⁻¹ s⁻¹ | 1.2 s⁻¹ | TUBB3-D417H (recombinant α/β-tubulin heterodimer with human TUBB3 D417H) (from UniProt P68363-1 1-437; Q13509-1 1-426) (complex)
